These results are taken from patent publication CN110156894A (JIANGSU NUOMAIBO BIOMEDICAL TECH CO LTD, dated 2019).

The target in assay [1] is T1, 重组TEM8蛋白(义翘神州) (human, UniProt Q9H6X2 33-321, limits assumed).
T1 construct: also called TEM8重组蛋白; recombinant TEM8 protein (Sino Biological)
T1 sequence (looked up): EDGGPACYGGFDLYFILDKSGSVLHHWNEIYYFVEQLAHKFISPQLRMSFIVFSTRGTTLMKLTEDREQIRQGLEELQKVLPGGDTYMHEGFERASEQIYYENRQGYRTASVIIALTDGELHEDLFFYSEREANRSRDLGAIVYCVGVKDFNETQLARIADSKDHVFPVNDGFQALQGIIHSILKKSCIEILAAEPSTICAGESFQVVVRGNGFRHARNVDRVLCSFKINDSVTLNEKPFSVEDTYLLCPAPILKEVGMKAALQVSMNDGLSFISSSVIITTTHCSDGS
Briefly: ELISA on plate-bound TEM8 protein, method as in Example 2.

In assay [2] the target is T1, 重组TEM8蛋白(义翘神州). In words: ELISA, antibody on plate-bound TEM8 protein, anti-human IgG-HRP, OD450. In general terms: An ELISA detects its analyte on a solid surface through an enzyme-linked reagent.
The target in assay [3] is T2, TEM8 on TEM8过表达细胞 (UniProt Q9H6X2 33-564, limits assumed).
T2 construct: whole, on cells; One molecule is used for cell-surface TEM8 on both cell lines; the cell line is named under assay; also called TEM8稳定过表达细胞株 (CHO-K1); TEM8过表细胞
Briefly: cell-based assay on TEM8 overexpressing cells, anti-human-IgG-Eu fluorescence.

Assay [4] addresses T2, TEM8 on TEM8过表达细胞. In words: cell-based ELISA on HCT116/TEM8 cells.

Broadly, the EC50 is the midpoint of the concentration-response curve. Read a high EC50 as lower potency in that assay.

B1: HUT104 (antibody, human IgG1, kappa, V domains shown)
VH: EVQLQESGPGLVKPSETLSLTCTVTGDSISSDYWNWVRQAPGQRLEWMGYISYSGNTYTNPSLKSRITINRDTSKNQFSLQLNSVTPEDTAVYYCARYKTITSAFDVWGQGTTVTVSS
VL: EIVMTQSPATLSVSPGERATLSCRASQNIRDFLHWYQQKPGQAPRLLIYYASQSISGIPARFSGSGSGTDFTLTISSLEPEDFAVYYCQNGHSFPYTFGGGTKVEIKR
notes: also called TEM8抗体HUT104; 单克隆抗体HUT104
As for B1, the half-maximal effective concentration (EC50) came to 0.00176 µg/mL with 重组TEM8蛋白(义翘神州) [1], 0.00317 µg/mL with 重组TEM8蛋白(义翘神州) [2], 0.105 µg/mL with TEM8 on TEM8过表达细胞 [3] and 0.128 µg/mL with TEM8 on TEM8过表达细胞 [4].

B2: HUT105 (antibody, human IgG1, kappa, V domains shown)
VH: EVQLQESGPGLVKPSETLSLTCTVTGDSISSDYWNWVRQAPGQRLEWMGYISYSGNTYTNPSLKSRITINRDTSKNQFSLQLNSVTPEDTAVYYCARYKTITSMFDVWGQGTTVTVSS
VL: EIVMTQSPATLSVSPGERATLSCRASQNIRDFLHWYQQKPGQAPRLLIYYASQSISGIPARFSGSGSGTDFTLTISSLEPEDFAVYYCQNGHSFPYTFGGGTKVEIKR
notes: also called TEM8抗体; 单克隆抗体HUT105
As for B2, the EC50 in the assay with 重组TEM8蛋白(义翘神州) [2] was found to be 0.00357 µg/mL; with TEM8 on TEM8过表达细胞 [3], 0.113 µg/mL.

B3: HUT103 (antibody, human IgG1, kappa, V domains shown)
VH: EVQLQESGPGLVKPSETLSLTCTVTGDSISSDYWNWVRQAPGQRLEWMGYISYSGNTYTNPSLKSRITINRDTSKNQFSLQLNSVTPEDTAVYYCARYKTITSVLDVWGQGTTVTVSS
VL: EIVMTQSPATLSVSPGERATLSCRASQNIRDFLHWYQQKPGQAPRLLIYYASQSISGIPARFSGSGSGTDFTLTISSLEPEDFAVYYCQNGHSFPYTFGGGTKVEIKR
notes: also called TEM8抗体; 单克隆抗体HUT103
In the case of B3, the EC50 in the assay with 重组TEM8蛋白(义翘神州) [2] is 0.00453 µg/mL; in the assay with TEM8 on TEM8过表达细胞 [3], 0.13 µg/mL.
